Assay results as given in patent US7387779B2, “Anti-angiogenic proteins and fragments and methods of use thereof” (Beth Israel Deaconess Medical Center, priority 1998, dated 2008).

Experiments:
C-PAE cells [1] = test: Competitive proliferation assay with anti-Tum-4 antibody; format: cell-based, bovine; settings: 1.5 μg/ml
Protocol: To determine if Turn-1 's inhibition of endothelial cell proliferation could be nullified by anti-Tum-4 antibody, a competitive proliferation assay was performed as described in Example 26, above. Tum-1 was preincubated with anti-Tum-4 antibody for the purpose of at least partially blocking the αvβ3 integrin binding site. It was then used in endothelial cell proliferation assays.
The results are shown in FIGS. 38A and 38B, which are histograms showing proliferation of C-PAE cells (y-axis) treated with 1.5 μg/ml Tum-1 (FIG. 38A) or Tum-2 (FIG. 38B) that had been preincubated with anti-Tum-4 antibody (1:100, 1:200, 1:500 dilution) (x-axis). Each column represents the mean ±the standard error of the mean for triplicate wells. The experiments were repeated three times. Asterisks indicate P<0.05 by one-tailed Student's t-test.

C-PAE cells [2] = test: Cell cycle analysis (propidium iodide, flow cytometry); format: cell-based, bovine; settings: 10% FBS
MLEC β3+/+ = test: Protein synthesis and cap-dependent translation in wild-type mouse lung endothelial cells; format: cell-based; settings: 4.5 μM; rapamycin 100 ng/ml
Excerpt: Therefore, to evaluate the effect of tumstatin peptides on cap-dependent and independent translation, endothelial cells were isolated from lungs of 12-week-old mice that were deficient in the expression of αvβ3 integrin (i.e., 3 integrin-deficient mice), and also their wild-type counterparts (Hodivala-Dilke, K. M. et al., 1999, J. Clin. Invest. 103:229-38). Briefly, ICAM-2 expressing MLEC were enriched using rat anti-mouse ICAM-2 (# 01800D, PharMingen, San Diego, Calif., USA) conjugated to magnetic beads (Dynabeads M-450, Dynal, Oslo, Norway). MLEC were maintained in 40% Ham's F-12,40% DME-Low Glucose, 20% FBS supplemented with heparin, endothelial mitogen (Biomedical Technologies, Inc., Cambridge, Mass., USA), glutamine and penicillin/streptomycin. Wild-type and β3-integrin-deficient mouse embryonic fibroblasts were prepared (Hodivala-Dilke, K. M. et al., 1999, J. Clin. Invest. 103:229-38). MEFs were maintained in DMEM containing 10% FBS. MLEC were characterized for homogeneity by morphological observations and by immunofluorescence staining for endothelial-specific markers. Cells between passage 3 and 6 were used for the experiments.

C-PAE cells [3] = test: Endothelial cell proliferation, 3H-thymidine incorporation; format: cell-based, bovine
Protocol: C-PAE cells were grown to confluence in DMEM with 10% fetal calf serum (FCS) and kept contact inhibited for 48 hours. Control cells were 786-O (renal carcinoma) cells, PC-3 cells, HPEC cells, and A-498 (renal carcinoma) cells. Cells were harvested with trypsinization (Life Technologies/Gibco BRL, Gaithersburg, Md., USA) at 37° C. for five minutes. A suspension of 12,500 cells in DMEM with 1% FCS was added to each well of a 24-well plate coated with 10 μg/ml fibronectin. The cells were incubated for 24 hours at 37° C. with 5% CO2 and 95% humidity. […] Unstimulated controls received no bFGF. Cells were treated with concentrations of Arresten or endostatin ranging from 0.01 to 50 μg/ml. All wells received 1 μCurie of ^3H-thymidine at the time of treatment. After 24 hours, medium was removed and the wells were washed with PBS. Cells were extracted with 1N NaOH and added to a scintillation vial containing 4 ml of ScintiVerse II (Fisher Scientific, Pittsburgh, Pa., USA) solution. Thymidine incorporation was measured using a scintillation counter. The results are shown in FIGS. 3A and 3B, which are a pair of graphs showing incorporation of ^3H-thymidine into C-PAE cells treated with varying amounts of Arresten (FIG. 3A) or endostatin (FIG. 3B). Arresten appeared to inhibit thymidine incorporation in C-PAE as well as did endostatin. Behavior of control cells treated with Arresten and endostatin is also shown in FIG. 4A, 4B, 4C, and 4D, with Arresten having little effect on 786-O cells (FIG. 4A), PC-3 cells (FIG. 4B), or HPEC cells (FIG. 4C). Endostatin had little effect on A-498 cells (FIG. 4D). All groups in FIGS. 3 and 4 represent triplicate samples.
Bovine calf aortic endothelial (C-PAE) cells were grown to confluence in DMEM with 10% fetal calf serum (FCS) and kept contact inhibited for 48 hours. […] Radioactivity was extracted with 1N NaOH and added to a scintillation vial containing 4 ml of ScintiVerse II (Fisher Scientific, Pittsburgh, Pa., USA) solution. Thymidine incorporation was measured using a scintillation counter. […]

IC50, inhibition of cell cycle progression (C-PAE cells [2]) | Molecule | anti-proliferative effect after pre-incubation with anti-Tum-4 antibody (C-PAE cells [1]) | protein synthesis / cap-dependent translation in control (β3+/+) endothelial cells (MLEC β3+/+) | other results
 | Tum-2: residues 1 to 132 of Tumstatin (SEQ ID NO:23) (protein, Tum-2 (amino acids 1-132 of SEQ ID NO10)) GLKGKRGDSGSPATWTTRGFVFTRHSQTTAIPSCPEGTVPLYSGFSFLFVQGNQRAHGQDLGTLGSCLQRFTTMPFLFCNVNDVCNFASRNDYSYWLSTPALMPMNMAPITGRALEPYISRCTVCEGPAIAI | not affected |  | 
no activity | endostatin: tumor associated angiogenesis inhibitor used as comparator (protein, UniProt P39060 1572-1754, looked up, Endostatin) Endostatin: HSHRDFQPVLHLVALNSPLSGGMRGIRGADFQCFQQARAVGLAGTFRAFLSSRLQDLYSIVRRADRAAVPIVNLKDELLFPSWEALFSGSEGPLKPGARIFSFDGKDVLRHPTWPQKSVWHGSDPNGRRLTESYCETWRTEAPSATGQASSLLGGRLLGQSAASCHHAYIVLCIENSFMTASK |  | did not exhibit this property | ED50, inhibition of proliferation (C-PAE cells [3]; bFGF-stimulated, E. Coli-produced Arresten): 0.75 µg/mL
about 5 μg/ml | Tum-1: residues 54 to 244 of Tumstatin, lacking the N-terminal 53 amino acids (SEQ ID NO:22) (protein, Tum-1 (Tumstatin N-53) (amino acids 54-244 of SEQ ID NO10)) QRAHGQDLGTLGSCLQRFTTMPFLFCNVNDVCNFASRNDYSYWLSTPALMPMNMAPITGRALEPYISRCTVCEGPAIAIAVHSQTTDIPPCPHGWISLWKGFSFIMFTSAGSEGTGQALASPGSCLEEFRASPFLECHGRGTCNYYSNSYSFWLASLNPERMFRKPIPSTVKAGELEKIISRCQVCMKKRH | not altered |  | 
 | Tumstatin: NC1 domain of the α3 chain of type IV collagen, residues 1-244 (SEQ ID NO:10) (protein, listed as Homo sapiens) GLKGKRGDSGSPATWTTRGFVFTRHSQTTAIPSCPEGTVPLYSGFSFLFVQGNQRAHGQDLGTLGSCLQRFTTMPFLFCNVNDVCNFASRNDYSYWLSTPALMPMNMAPITGRALEPYISRCTVCEGPAIAIAVHSQTTDIPPCPHGWISLWKGFSFIMFTSAGSEGTGQALASPGSCLEEFRASPFLECHGRGTCNYYSNSYSFWLASLNPERMFRKPIPSTVKAGELEKIISRCQVCMKKRH |  | inhibited protein synthesis | ED50, inhibition of 3H-thymidine incorporation (C-PAE cells [3]; 20% FCS stimulated): approximately 0.01 mg/ml
 | Canstatin: NC1 domain of the α2 chain of Type IV collagen (SEQ ID NO:6) (protein, listed as Homo sapiens) VSIGYLLVKHSQTDQEPMCPVGMNKLWSGYSLLYFEGQEKAHNQDLGLAGSCLARFSTMPFLYCNPGDVCYYASRNDKSYWLSTTAPLPMMPVAEDEIKPYISRCSVCEAPAIAIAVHSQDVSIPHCPAGWRSLWIGYSFLMHTAAGDEGGGQSLVSPGSCLEDFRATPFIECNGGRGTCHYYANKYSFWLTTIPEQSFQGSPSADTLKAGLIRTHISRCQVCMKNL |  |  | ED50, inhibition of proliferation (C-PAE cells [3]; 10% serum-stimulated): approximately 0.5 μg/ml
